These results are taken from a protein production outcome set (Wang et al. 2014).
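Also: failed if final PepcDB status was selected cloned or expressed and not failed if soluble or beyond.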

The series in a line: label from the status in PepcDB records.
“MKQQLESFIETTKPSALVADMFFPWATESAEKLGVPRLVFHGTSFFSLCCSYNMRIHKPHKKVATSSTPFVIPGLPGDIVITEDQANVAKEETPMGKFMKEVRESETNSFGVLVNSFYELESAYADFYRSFVAKRAWHIGPLSLSNRELGEKARRGKKANIDEQECLKWLDSKTPGSVVYLSFGSGTNFTNDQLLEIAFGLEGSGQSFIWVVRKNENQGDNEEWLPEGFKERTTGKGLIIPGWAPQVLILDHKAIGGFVTHCGWNSAIEGIAAGLPMVTWPMGAEQFYNEKLLTKVLRIGVNVGATELVKKGKLISRAQVEKAVREVIGGEKAEERRLWAKKLGEMAKAAVEEGGSSYNDVNKFMEELNGRK”: the protein production result is on record as “failed”.
“MANIEYDPERQLFHLHNDTFSYVIQVIRGYLVKRYCGPALDHFSGTAKLEDFSHAFNIQNDAAPYSLTTLPLEYSTLMGGDYRTPAYAVRNGHGQLIGNLKFDHYQILAGNESFNGTLPTARTPHGQTLIITMHDETQTLAVRLKYTIVGDLPVLLKQVEYRNLTDTTLTITHAASLQLDFDDHAYDLITLTGAHLNEAKVTRQPLTPGKKSIGSNYGASGPQGVPATILAAPATNEFAGEALGVTLLWSGNFNYTAQVDQFDNSRLVMGLNPELFAWQLKPGKPFVTPEAAVAYTNDGLNDLSRIFHRFFADHVMPLPRKNLIEYNTWETTYFDVSEAKILAEIPKAEELGVELLVIDDGWFKNRPNDAGQLGDWVPDPAKFPHGLRPVADAIHARGLAFGLWVEPEMISENSELYATHPDWAMQYVGQKPLRSRNQLILDLSQRIVQDHLITVLTNLVRDNHIDYLKWDYNRHFSQPGSPVLPPDQQGEVGYRYTRGLYRVLKTLRDTFPKLLIENCSSGGGRLDGGMIAYTDQTWTSDFTDPVYRMKIMNGFSLFFPLKIFVSHFTASPNLQDARLTPLHTRALLSLVGITGIECPPSQLSPAEAAAVKASFAFYKANRKELQNGLLFRLQPSHVNQDEVCWLITNAAKTKALVLTSVGVTSPIPHYQHVLLHYLDPKLSYQIDNTKNATGLELNHAGVTLPLAHGDFSATLMELTAVTNLPQPTAAPTLEHHHHHH”: the protein production entry is on record as “failed”.
As to “MTESATASRSWHLQATIRRLVLTAFVAGQTGLASWFLLQVLPYHGGNVVEWLIVAVFAVLYLWIAFGFWIAVYGFLLRLLGGDRASLLKRHTPNELAATPLSKTAIVMPLYHEPVSWTLKGLKAIYLDLARSGRLDDFDFYILSDSQDPDVWLQEQQVWLKLVEELGAHGRLFYRRRRVNLNYKSGNVADFLRRWGSQYQYMVVLDADSLLAGDTIRTMVQVMNREPQVGILQTAPTIINARSAFARIQQFANRLYSPLFATGLAAIQMGDAAFWGHNAVIRVAPFMAHCGLPKLKGAGIWQGPIMSHDFVEAAFLGRAGYEVWLEPALGASYEESPPTLDDELARDQRWSKGNLQHAALMLFSPRLRLAHRFAFLNGIMAYASSPLWLLFLVLTTIAAVQLTIAPIDYFPDGRESPFPLWPEWRPTWAITLVVSTMALLFLPKFLAIVDVVAHRTLSGFGGFFRLLCSVLLEIVVSVLLAPIRMLAHSHSVVSALLNVRLSWAGQNRTEETGWREAAVRHLPGLIIGSAWSAFAWTLDPMFFLWSLPVSIPLALAAPTTVWLSRSSSGESLSRRGLLLTPEERTRMPLLDDARGFREEAESEVALTPVEQAVLIPAVNRLHRQLAGRGAKGLKKEVIEGELDACVSRGYRGIEKGRLSLLLEDPQALTALHRRAWSAPSDSFWGQRVRNLVLHAQGLQDL”, the protein production entry was “failed”.
Take “MVVSKMNKDAQMRAAINQKLIETGERERLKELLRAKLIECGWKDQLKAHCKEVIKEKGLEHVTVDDLVAEITPKGRALVPDSVKKELLQRIRTFLAQHASL”: the protein production entry is on record as “failed”.
Take “MTYMYDHDHIPKHITATIWEHLQRENPNFFKEYNKRCELVRQIVTLNDLLAQQIDLMQRLSQLDVGTTAPVTKLQEPNDHHHDEVQTLEQWLETNGFANIEDTFLCLSDLVDAPVTEVQKPKDKDQSCDQWINGSNDLASIEETVSSLINPSPFAETPQSEPPGLRYDTDCACITATSNLVTWVYDPSGDNKSGVEISSERRFGANISLERRRPREAGFTEQRPPSVLDGGRITGPLSSEPTMTH”: the protein production entry was “failed”.
As to “MAGLAISPPLGLSFSSRTRNPKPTSFLSHNQRNPIRRIVSALQSPYGDSLKAGLSSNVSGSPIKIDNKAPRFGVIEAKKGNPPVMPSVMTPGGPLDLSSVLFRNRIIFIGQPINAQVAQRVISQLVTLASIDDKSDILMYLNCPGGSTYSVLAIYDCMSWIKPKVGTVAFGVAASQGALLLAGGEKGMRYAMPNTRVMIHQPQTGCGGHVEDVRRQVNEAIEARQKIDRMYAAFTGQPLEKVQQYTERDRFLSASEALEFGLIDGLLETEY”, the protein production result is reported as “not failed”.
With “MNNLPLLNDLRVFMLVARRAGFAAAAEELGVSPAFVSKRVSLLEQTLNVMLLHRTTRRVTITEEGERIYEWAQRILQDVDEMMDELSDVRQVPQGTLRIISSFGFGRRVVAPALSALALQYPQLELRFDVQDRLVDLVNEGVDLDIRVGDDIAPNLIARQLAANHRVLCASPQFLARHAPPKQLSDLAALPCLVIKERDHPFGVWQLHSKEGQHAIKVTGPLSSNHGEIVHQWCLDGQGIALRSWWDVRENIASGHLVQVLPDYWQPANVWAVYVSRLATSAKIRTTVEFLRHYFQLHYPQHEPTASAVGRGD”, the protein production result is listed as “failed”.
As to “MVPYLDGEDVAGVQSRVRMYNADENLLTKMQDIEFALFGNLIMRSRMKMGVPAFLGGNGQLVKRRAVEEIGGWDGYAVTEDLNLSVKLMLRGYDVKFSSEAEVFQEAVGDWPAFFRQRTRWLIGNLETLFVYLAPLIDAPITLHRKLDSLFYLFSMLFIGFVMLGYVVFILNLAGFTLRMNAPFIIGIISTIAFFPLVITGIRRDGYSLPRTLILSIEYWAYCLYLLPLFIVAAVHMIRRRERRWAKTFHTG”, the protein production result is reported as “failed”.
As to “MDMVTVTAKTVEEAVTKALIELQTTSDKLTYEIVEKGSAGFLGIGSKPAIIRAKRKETLQDKAIEFLEQVFDAMNMAVDISVEYNETEKEMNVNLKGDDMGILIGKRGQTLDSLQYLVSLVVNKSSSDYIRVKLDTENYRERRKETLETLAKNIAYKVKRTKRSVSLEPMNPYERRIIHAALQNDKYVVTRSDGEEPFRHVIISLKRENRRDRNDRSDRNEK”, the protein production entry is given as “not failed”.
In the case of “MLIALLLISYQLIKHGYRAADIKNLYTILEGEELRRQKDLSAKLRWGIVDEILWTIIVANGAILFTAHYVLIGLKILDLIAIFVVMLSGVMLYAPLAFLFLYPVVRAFEKNFPPSNPQFLLSHGLICTVSSLIVYEKLEQLWWDPLLVGFFWIAAGFVSFFTNRRFEVLVFLLLIAPLALLSVKCPGAILPILLAKSECSLRIQATFLVKLAVLIFASLAAVALVLQVFGYKSLRELSEKRKAAIKQGKYNPLRDPIIWIAWIMLTSLGLLIASFMERGEISPNML”, the protein production entry was “failed”.
As to “MKMIETSLASASAALRDRVDEILAAATREDGCAPLSESFLNGLRRADDGHVHSCVMDSHDQVVGVAARDGDSAEVVVDPAFRRQGYGSFLIRHVVSQGVKNVWAHGDGAGAKAVAKALQLEQTRQLLVMAVEGDRLVESAQLQVPSGFRVLALNEAYESIPDIEQQWLRVNNEAFEWHPEQGGWDSARLAQARDTQWFRESDVLFLIDTAKRTVAGFHWTKRHGDLAEGADGEVYVVGLGSAYRRRGLGDLLIRMGLHHLEYEHARRVILYVEGDNESARRAYDALGFHVVESHVTYSPQSSS”, the protein production result was “failed”.
As for “MVLARAPEPHGGGNRLNSATMRVYLGKTHKHPHQNRRHTVSDISDYIVSHFKRSSREIGEVERRILELSHQKKLVSSDINAEFSAGASLGDRLADNIAKVGGSWGFILSFCFFLIFWAIINTIVLTTRAFDPYPFIFLNLLLSMLAAIQAPIIMMSQNRQAARDRFEAAKDYEVNLKAELEVLSLHEKIDVKVLAELAALRQDIAAIHHHVTRKDD”, the protein production entry is reported as “failed”.
In the case of “MRNLKELKWSDLKTGIFFLLGLGFAAYLGLVIGKNTSIFTGVTTIKVMTRDVNGLAENNFVSVAGKKIGTVSKLDFSTQNDSLFVVAELKLQNEYANLVTKDSKASIRSLGVLGDKYVDIKAGTGKPVKEGDFIQLVPEDGLSALTDNAKSTIEKLNTLLDKLNNGDGPAGRLISDKQMGEDLQKTVMNLRKSSDELTRVSAELHNGKGLLPKLINDKSLADNTEQTIVNLKNAAAETETLMKQLNEGKGTLGKLNSDPALYNNLSKTLISLDTLLIDLKKRPNRYVRFTLF”, the protein production result is listed as “failed”.
The value for “MKTDVRWATFNIRYDNPQDSLNNWQYRKDRVCQFIKDHELDIVGMQEVLHNQFQDLRAGLPEYDGIGVGRDDGKTAGEYAPLFYRKDKYEVLDSNTFWLAENPDSVGMMGWDAVCVRIATWAKFKDKATGKIFMAVNTHFDHVGEEARRQSALLIIRKIKEIVGERPAVVTGDFNVTDASDAYETITTNEFVMKDAYKTAARVTGVDYTFHDFARIPAEDCEKIDFIFVTPQVLVKSCEIPAEVPEALLSDHNPQLADLELEHHHHHH” was “not failed”; that for “MARPQPCGPPHARCGSPSLPERPLQVKVVGLFSCPNFQIAKSAAENLKNNHPSKFEDPILVPLQEFAWHQYLQEKKRELKNETWEYSSSVISFVNGQFLGDALDLQKWAHEVWDIVDIKPSALYDALTEDFSAKFLRDTKHDFVFLDICIDSSPIGRLIFELYCDVCPKTCKNFQVLCTGKAGFSQRGIRLHYKNSIFHRIVQNGWIQGGDIVYGKGDNGESIYGPTFEDENFSVPHNKRGVLGMANKGRHSNGSQFYITLQATPYLDRKFVAFGQLIEGTEVLKQLELVPTQNERPIHMCRITDSGDPYA” was “failed”; that for “MAFLTNDDVVLICDKNYDCPTKIQSVRQKDTTCVAFRPWSQTCEFAVGCAAGICLWSDSRRLNANRNIRRMMGTHHLQVLQDKGHNYVTSMQWNEDGTILVTAAFGSSHIMLWEPDCQQKIRLIPNPKSLGSFSLLRFSPDFHVLFCASCDAGASLCQLNRSKWKLKQILGQQRIQSAVWTTCGSTLLYACYGSTRVYSCTSDGEDSVFLRPQSIWRVQLIMDLQLVTTCAGQRLCCGEPQCLAMDPLGIYMASIFKEQSFVLLCILHTSRWGNVKLLPVEFIYCDMDGDQYPAYISFGVLKAEIRFLIIAWNTGHFQRYDITAQCFRDAQLYHNIN” was “failed”.
For “MDRNEIGLNAGKVWQLLSNNEKWGYGTLKRKSGLKDKELGAALGWLSRENKIEFDQCDEELYVYLCVNVYIG”, the protein production entry is listed as “failed”.
Regarding “RQAEEGPPPLPRQISDRSVGHYCSMNLTEHNGPKAQIFLNGKPDQPVWFSTIKQMFGYTKLPEEPKGIRVIYVTDMGNVTDWTNPNADTEWMDAKKAFYVIDSGFIGGMGAEDALPFGNKEQAEKFAKDKGGKVVGFDDMPDTYIFK”, the protein production result is “not failed”.
In the case of “NQPAYKDSSLSPEERAEDLLQQLTLEEKVALMMDNSKPVERLGIKPYNWWNEALHGVARSGLATVFPQPIGMAASFEPDAIHTIYTAVSDEARAKNAAYSAAGSYERYQGLTMWTPTVNIYRDPRWGRGIETYGEDPYLTSVMGVNVVKGLQCMDANQKYDKIHACAKHFAVHSGPEWNRHEFNAENIKPRDLHETYLVPFEALVKEAKVKEVMCAYNRLEGDPCCGSDRLLMQILRQDWGYDGIVLSDCGAIDDFYREKGHKTHPDAESASAAAVLSGTDLECGSSYKALVESAKKGLISEKDIDVSVKRLLKARFELGEMDDP”, the protein production entry is “failed”.
